The record followed here is publication PMC5387315, “Functional and structural studies on the Neisseria gonorrhoeae GmhA, the first enzyme in the glycero‐manno‐heptose biosynthesis pathways, demonstrate a critical role in lipooligosaccharide synthesis and gonococcal viability” (MicrobiologyOpen, 2017).

This data set deals with the molecule itself. The experiment in a line: SEC; HiLoad 16/600 Superdex 75 pg, 20 mmol/L Tris-HCl pH 8.0, 500 mmol/L NaCl, 1 ml/min; size by Gel Filtration Standard (Bio-Rad). Background: In gel filtration, larger molecules generally elute earlier.

B1: recombinant Neisseria gonorrhoeae sedoheptulose-7-phosphate isomerase GmhA, untagged (rGmhAGC) (enzyme, Neisseria gonorrhoeae FA1090, UniProt Q5F5E3 1-197, looked up)
chain: MTTLQERVAAHFAESIRAKQEAEKILVEPTVQAAELMLQCLMNDGKILACGNGGSAADAQHFAAEMTGRFEKERMELAAVALTTDTSALTAIGNDYGFDHVFSKQVRALGRAGDVLVGISTSGNSANVIEAVKAAHERDMHVIALTGRDGGKIAAMLKDTDVLLNVPHPRTARIQENHILLIHAMCDCIDSVLLEGM
notes: GmhA (sedoheptulose-7-phosphate isomerase) of N. gonorrhoeae FA1090, encoded by ngo1986; 197 amino acids, predicted mass 21.093 kDa; ngo1986 amplified without its stop codon and cloned into NcoI/HindIII of pRSF-NT; His tag removed by TEV protease; also called NGO1986; 6 × His-tag-free rGmhAGC; source: E. coli BL21(DE3), purified (IMAC, TEV cleavage, Ni-NTA); not shown: His6, N-terminal, cleaved
By stoichiometry N is commonly meant the number of molecules, sites or subunits per partner or assembly. As for B1, the “stoichiometry N” value was 4.
